Assay [1] has as its target T1, recombinant human CEACAM5 Extra Cellular Domain (ECD) soluble protein (human, UniProt P06731 35-685, biotinylated in the competition ELISA of Example 4).
T1 construct: extracellular domain; also called rec. hCEACAM5; recombinant soluble human CEACAM5; not shown: C-terminal Avitag and hexa-histidine tag, or a human Fc or a mouse Fc region; which construct stood in each assay is not
T1 sequence (looked up): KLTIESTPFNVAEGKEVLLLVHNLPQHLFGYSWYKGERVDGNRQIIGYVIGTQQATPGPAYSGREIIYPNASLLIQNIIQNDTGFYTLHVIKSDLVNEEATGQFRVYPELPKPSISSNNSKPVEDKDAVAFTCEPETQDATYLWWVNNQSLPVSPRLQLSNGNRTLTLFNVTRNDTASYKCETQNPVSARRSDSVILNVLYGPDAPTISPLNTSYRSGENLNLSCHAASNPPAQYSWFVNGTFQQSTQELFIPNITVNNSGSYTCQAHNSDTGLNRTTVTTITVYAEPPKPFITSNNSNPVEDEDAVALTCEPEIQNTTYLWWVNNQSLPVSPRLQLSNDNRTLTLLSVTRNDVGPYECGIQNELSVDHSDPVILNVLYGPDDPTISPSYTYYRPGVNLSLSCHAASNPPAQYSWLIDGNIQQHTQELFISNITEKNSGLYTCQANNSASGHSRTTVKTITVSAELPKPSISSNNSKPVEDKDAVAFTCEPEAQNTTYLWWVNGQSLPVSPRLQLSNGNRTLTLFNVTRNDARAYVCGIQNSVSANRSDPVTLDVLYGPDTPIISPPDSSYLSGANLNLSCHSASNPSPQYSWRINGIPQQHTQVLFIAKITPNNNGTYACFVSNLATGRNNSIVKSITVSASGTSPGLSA
The experiment in a line: BLI (Octet), from Table 2. How it is done:
(§1) The affinity of the anti-human CEACAM5 arm of the CD47×CEACAM5 bispecific antibodies of the invention for recombinant soluble human CEACAM5 was determined using the Bio-Layer Interferometry (BLI) technology. An OctetRED96 instrument and Protein A biosensors were used (Sartorius). The measurement was performed at 30° C. After hydration, pre-conditioning and a baseline step in Kinetic buffer (PBS, 0.002% Tween 20, 0.01% BSA, Kathon; Sartorius), biosensors were loaded for 5 min with the κλ body at 0.5 μg/mL in Kinetic buffer. Then, biosensors were dipped into a serial dilution of recombinant human CEACAM5 Extra Cellular Domain (ECD) soluble protein (produced in house), starting at 50 nM with a 2× dilution factor. The association and dissociation phases were monitored for 600 seconds each. Biosensors were regenerated using 10 mM glycine pH 1.7. A standard acquisition rate was applied (5.0 Hz, averaging by 20). Curves were processed with a reference well subtraction, a Y alignment on the baseline, without interstep correction. The affinity was measured applying a 1:1 global fitting model on the full association and dissociation steps. The binding affinity (KD) of the bispecific antibodies of the invention to recombinant human CD47 was determined by the same experimental procedure.
(§2) The affinity of the anti-human CEACAM5 arms of the CD47×CEACAM5 bispecific antibodies of the invention for recombinant soluble human CEACAM3 was determined using the Bio-Layer Interferometry (BLI) technology and an OctetRED96 instrument. HIS1K biosensors (Sartorius), loaded with an anti-His tag antibody, were used to capture his-tagged recombinant huCEACAM3 (R&D Systems, #9868-CM). The measurement was performed at 30° C. After hydration, pre-conditioning and a baseline step in Kinetic buffer (PBS, 0.002% Tween 20, 0.01% BSA, Kathon; Sartorius), biosensors were loaded for 5 min with the recombinant huCEACAM3 at 5 μg/mL in Kinetic buffer. Then, biosensors were dipped into a serial dilution of k bodies, starting at 667 nM with a 2× dilution factor. The association and dissociation phases were monitored for 60 seconds and 120 seconds respectively. Biosensors were regenerated using 10 mM glycine pH 1.7.
For orientation: BLI is a label-free optical method that tracks binding on a fibre tip over time.

The target in assay [2] is T2, his-tagged recombinant huCEACAM3 (R&D Systems, #9868-CM) (human, UniProt P40198 35-155).
T2 construct: Bought reagent; also called rec. hCEACAM3; recombinant soluble human CEACAM3; not shown: His tag
T2 sequence (looked up): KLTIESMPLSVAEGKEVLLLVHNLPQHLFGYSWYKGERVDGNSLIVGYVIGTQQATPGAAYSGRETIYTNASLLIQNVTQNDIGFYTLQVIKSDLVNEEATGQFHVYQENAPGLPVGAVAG
Nature of the assay: BLI (Octet), from Table 2. As for the experimental part:
as §1, §2

Assay [3] has as its target T3, human CEACAM5 on CEACAM5-expressing cancer cell lines (human, UniProt P06731 35-685).
T3 construct: whole, on cells; also called CEACAM5 on SK-CO-1, MKN-45, HPAF-II, SNU-C1, Ls174T, LoVo cells
T3 sequence (looked up): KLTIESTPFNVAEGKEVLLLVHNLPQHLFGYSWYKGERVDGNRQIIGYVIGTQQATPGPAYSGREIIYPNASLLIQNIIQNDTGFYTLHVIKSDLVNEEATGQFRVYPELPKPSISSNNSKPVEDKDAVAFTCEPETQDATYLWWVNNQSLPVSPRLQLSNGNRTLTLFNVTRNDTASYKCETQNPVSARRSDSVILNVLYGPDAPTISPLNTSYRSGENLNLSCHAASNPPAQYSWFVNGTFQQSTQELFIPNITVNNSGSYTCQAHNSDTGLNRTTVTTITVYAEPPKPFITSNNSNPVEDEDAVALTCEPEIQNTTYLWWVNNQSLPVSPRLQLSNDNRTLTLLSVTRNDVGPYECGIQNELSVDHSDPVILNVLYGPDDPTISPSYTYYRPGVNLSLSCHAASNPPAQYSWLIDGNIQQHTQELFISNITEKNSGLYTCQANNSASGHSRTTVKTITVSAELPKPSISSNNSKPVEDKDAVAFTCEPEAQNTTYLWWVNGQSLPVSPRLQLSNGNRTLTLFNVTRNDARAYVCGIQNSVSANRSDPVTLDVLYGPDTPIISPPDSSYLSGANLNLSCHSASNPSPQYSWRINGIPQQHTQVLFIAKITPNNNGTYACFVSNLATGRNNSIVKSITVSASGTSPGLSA
Nature of the assay: flow cytometry on MKN-45 cells, K2AC100 directly labeled with a fluorochrome, no competitor. As for the experimental part: (§3) A binding assay to cells expressing CEACAM5 was performed as described in Example 6. […] An antibody was regarded as non-competitive if 300 nM of the antibody shifts the binding curve of a bispecific antibody of the invention by less than a factor of 3.
(§4) In this experiment, the concentration-dependent binding of CD47×CEACAM5 bispecific antibody K2AC100 was measured in the presence of an anti-CEACAM5 mAbs, either TCB2014 or TCB 2017. This binding was measured at the cell surface of CEACAM5-expressing MKN-45 cells. K2AC100 was directly labeled with a fluorochrome to follow its binding on MKN-45 cells alone (dark line, dark circles), in presence of 300 nM of TCB2014 (dark line, dark triangles) or 30 nM of TCB2017 (dark line, black diamonds). Negative controls (Ctrl) were used (IgG1 in presence of TCB2014 or TCB2017). […] Therefore, the K2AC100 antibody is non-competitive with the TCB2014 and TCB2017 antibodies with respect to CEACAM5 binding.
For orientation: Flow cytometry measures light scatter and fluorescence of single cells or particles in a stream.

Assay [4] has as its target T3, human CEACAM5 on CEACAM5-expressing …. The experiment in a line: flow cytometry on MKN-45 cells, K2AC100 directly labeled with a fluorochrome, in presence of 30 nM TCB2017. How it is done:
as §3, §4

Assay [5] shares this target. Nature of the assay: flow cytometry on MKN-45 cells, K2AC100 directly labeled with a fluorochrome, in presence of 300 nM TCB2014. How it is done: as §3, §4

Results on two molecules are retold here after patent publication US20220195067A1 (LAMKAP BIO BETA, published 2022).

B1: K2AC84 (bispecific antibody, human IgG1, kappa, lambda)
heavy: not shown
light 1: QSVLTQPPSVSAAPGQKVTISCSGSSSNIGIGLVSWYQQLPGTAPKLLIYNVNTRPSGIPDRFSGSKSGTSATLGITGLQTGDEADYYCGTWDFSYRVDFGGGTKLTVLGQPKAAPSVTLFPPSSEELQANKATLVCLISDFYPGAVTVAWKADSSPVKAGVETTTPSKQSNNKYAASSYLSLTPEQWKSHRSYSCQVTHEGSTVEKTVAPTECS
light 2: not shown
notes: Kappa-lambda body; also called CD47xCEACAM5 bispecific antibody K2AC84; AC84 (CEACAM5 arm)
As for B1, the entries for the “fold higher binding affinity (KD) compared to K2AC22” value in assay [1] and in assay [2] were 46 fold and 28 fold, respectively.

B2: K2AC100 (bispecific antibody, human IgG1, kappa, lambda)
heavy: not shown
light 1: QSVLTQPPSVSAAPGQKVTISCSGSSSNIGYGLVSWYQQLPGTAPKLLIYNGNIRPSGIPDRFSGSKSGTSATLGITGLQTGDEADYYCGTWDFSYRVDFGGGTKLTVLGQPKAAPSVTLFPPSSEELQANKATLVCLISDFYPGAVTVAWKADSSPVKAGVETTTPSKQSNNKYAASSYLSLTPEQWKSHRSYSCQVTHEGSTVEKTVAPTECS
light 2: not shown
notes: Kappa-lambda body; also called CD47xCEACAM5 bispecific antibody K2AC100; AC100 (CEACAM5 arm)
What is called EC50 (read off the curve) is the concentration that produces a half-maximal response. Take B2: the figures for the “fold higher binding affinity (lower KD) compared to K2AC22” value in assay [1] and in assay [2] were 25 fold and 14 fold, respectively. For the same molecule, the concentration for a half-maximal effect (EC50 (read off the curve)) in assay [3], in assay [4] and in assay [5] was approximately 2 µg/mL each time.
